From a protein production outcome set (Wang et al. 2014) come the findings set out here.

The data set is described as follows: label from the status in PepcDB records.

As for “MNLLIENIRGISYALVSPTLSLMLIVIAIIFYFKNRKIAFMQKLMLGRSIQSPLEMTLLQILIGILGGLIASLLLSILGVTFENSSLIDVILTVSVFSVLYKNRFLKFPYIAALLGVIGVLVSKNTEYFGRGFSFSINLTSIIVLIGVFSIVEGILAMIDGDKGYLPIFTQKDGKLVGGFGFKRFWALPLCLLVVLGANSGNSIINEVKDLPQWLPFFNGDKARALMSVAALGTLAAYGATSYEGTTFTQSKRSKTITSGLINIAYGIVVIILAYLLKESLVFTIALIILIPLLYELRIRMELKLESLREPLYFSNDDEICILDVLPNSIAYKKGLRSGDKIVKINEEIPKNEKEVFMAIKRNFYGLDLEIRKNNGNIEKHTITGEDRGKQFGIVLVPKGISFDKEIDEFLEKLKKASKDEEVKNK”, the protein production result was “failed”.

In the case of “MNLLTVSTDLISIFLFTTLFLFFARKVAKKVGLVDKPNFRKRHQGLIPLVGGISVYAGICFTFGIVDYYIPHASLYLACAGVLVFIGALDDRFDISVKIRATIQAAVGIVMMVFGKLYLSSLGYIFGSWEMVLGPFGYFLTLFAVWAAINAFNMVDGIDGLLGGLSCVSFAAIGMILWFDGQTSLAIWCFAMIAAILPYIMLNLGILGRRYKVFMGDAGSTLIGFTVIWILLETTQGKTHPISPVTALWIIAIPLMDMVAIMYRRLRKGMSPFSPDRQHIHHLIMRAGFTSRQAFVLITLAAALLASIGVLAEYSHFVPEWVMLVLFLLAFFLYGYCIKRAWKVARFIKRVKRRLRRNRGGSPNLTK”, the protein production result is “failed”.

Consider “MNLLYVVLIGQILLFLIGAIYAMRQTKRTKDNMPLPLAIRLILSFSLTGSAIWIWLQDPSVEYSTWVALGMTLSTVGDLFMAGLIPIGHRLIGGMVTFALAHCFYVKAFLQTGISWNGFWIGLLVYGLFLIVGWFFFIRNDKQDKLFTIGALIYGLWVGGMACFAFALYYENTGIWWIPAFGGLLFVISDFIIGVTDIGGRKLKYEPLWIWFTYVAAQMCIVYVGL”, for which the protein production result is recorded as “failed”.

Consider “MNLMRFLRRPISLRQRLILTIGAILLVFELISVFWLWHESTEQIQLFEQALRDNRNNDRHIMREIREAVASLIVPGVFMVSLTLFICYQAVRRITRPLAELQKELEARTADNLTPIAIHSATLEIEAVVSALNDLVSRLTSTLDNERLFTADVAHELRTPLAGVRLHLELLAKTHHIDVAPLVARLDQMMESVSQLLQLARAGQSFSSGNYQHVKLLEDVILPSYDELSTMLDQRQQTLLLPESAADITVQGDATLLRMLLRNLVENAHRYSPQGSNIMIKLQEDGGAVMAVEDEGPGIDESKCGELSKAFVRMDSRYGGIGLGLSIVSRITQLHHGQFFLQNRQETSGTRAWVRLKKDQNVANQI”, for which the protein production result is “failed”.

As to “MNLNNIRSSMTESTKSKDESMRSHLVKPGSVYDGIEPGELGETTESVQDRVRQLESRNSFLEEQCSQIESEKRYLENQKIKYEREIRKLQSELDRMKTSPLIIGTVIDVIKNDRIIVRSSNGPQFLVNVSQYIDEKKLLPGAKVALNQHTLAIAEVIPSTEEPFVAAMEVIESVEVDYDQIGGLDEQIQELQEAVELPLTSPERFARIGIEPPKGVLLYGLPGTGKTLLAKAVAHRTNATFIRVVGSELVQKYIGDGSKLVREIFEMARKKAPSIIFIDELDSIAARRLNETTGADREVQRTLMQLLAEMDGFDKRKNIRIIAATNRPDVLDPAILRPGRFDRLVHVPMPGIEARGKILKIHCEKMTLAEDIDFKKLAKATEGMSGADLKAIATEAGMFAVRRDKELVEMEEFLEAVEKVSMAADTQKMMPSNLPETMFV”, the protein production entry was “failed”.

In the case of “MNLSKFPVYVQAAILALVLALVGYLVAQALQFSLKAEVIFAVGLAIGGFVVPLFLNRAPAGVAELASSQETCTLYVGNLPYRANEIAVRELFAEQGQVISVRLMKDKATGKRRGFGFVEMPAADAAKAIAALNDKEYQQRTLKVREANDKRDKDEREGSEVDA”, the protein production result is on record as “failed”.

For “MNLTFDYTKEPSRDVFCIDVKSFYASVECVERGLDPLKTMLVVMSNSENSGGLVLAASPMAKKVLGISNVTRKNEVPDHPNLIIVPPRMKLYMKKNQEINNLYKRFVSDEDHSVFSVDESFLDVTASLTYFKCDTAYKLAKIIQRVIYNHMGLYVTIGIGENPLLAKLALDNEAKNAPGFVAEWRYEDVPEKVWPISPLTEFCGIGNRMAARLKKLGIRSIYDLAHIEPYMLKERFGIMGLQLYAHSWGIDRSFLGQKAGRPTEKSFGNSQVLPKDYANKEQIKLVLKELSDQVASRLRMASCQTTCVSLFVGYSKGQTDKYGQTGWRRQMKVEPSNNTKVLTEHVLRLFEENYAPGVDVRNLGVSYGRLVWNKNLQLDLFSVPEEQIHETDMYFLIDKIRQKFGFKALIHASSLMEGATAISRASLVGGHAGGTVGLGTTK”, the protein production entry is recorded as “failed”.

Turning to “MNLTFLGLCIACMGVSVGEGLLMNGLFKSVARQPDMLSEFRSLMFLGVAFIEGTFFVTLVFSFIIK”, the protein production entry is given as “failed”.

With “MNLTYLFVLIWLAFLISSGVMLFSRGFLLARVSKTETSTCRRLSTNPNAEYVLTDEVVNEIFKDVNASSNLCLPQKSKVIVLVVDALKYEFGLYRANATDPLPYENKLVVLQELLQQNPDHARLMRFRADPPTTTLQRLKGLTTGSLPTFIDIGSNFASPEINEDNIIDQIVKNDLPVVFLGDSTWTDLYPHRFKRSYSYPSFDIFDLDSVDNEILKHLPKELESKDWQVLVAHFLGVDHCGHKHGPMHEEMARKLGEMNEVIRSVVAAMDNDTTLLVMGDHGMTASGDHGGDTDDETNALLFAYSKQHRFYGNDSGSDSEMLQQIDLVPTLATILGVPIPYSNLGLVNFNIVPDLRVPHLNKFQTLLLHSWQNAQQIYRYFFQYALENKRTFNVEQMDHLETEFILLTHRVQTVYNEVAFKSFVRDLNTNLRDILGTCREIWVRFDPTQMSQGLLFTFLPLFFIFLVVNNSRPADFPHIFKAKEVFYVYLINLAAGVFGYRYFKTFSFKTEEQGVIFFTAISSAVILAFHTLRHWTSIATNWSAVKRFGHMPTRLLLFGSMAVFFSNSFVIQEAKILSYLLAAAILLLSHELLRLSARLDFRTKFKASQFLRSTALRLILASVLAICLIRFAYTLFRCREEQGNCSDFVNTGGAGFSLKKPGTGKTYILAVVVLVVYTTLTRLYLRSCGNLTGNLPNVLLARYGPTVASICAGGHILLANSSIKHIQRTHIDAMALVIYGLLLVQIIVLSWAPLMTFVLPPRSSHTVTINGNESIVPEIFRKMKRMYEGDDDERRSHIPVVYGLATVYSSIVIAFGVFLALVMIVLLEPRASIGLVVCVAVGAILLSVHSILRYRTATSFESCVQPTFTALVGWFLLAHFCFFATSHQTTLSQIEWRAAFVGRTTGIGQSNLVSGALVILNTFCGPIFFFCMYSLLSTETFSLFALFPNLIRSCRSGGKVDASTSMSDLANEAVGFDMTRGELSLYEYEDVFLGTGFKLATQFFMLQGLKIFCAMLACTIHCRHLMVWKIFAPRFIYEALATFVSLPALIVGYLLVLRIHRGVDTLIKRINKAKVH”, the protein production entry was “failed”.

Turning to “MNMGMVTLAAIRSVPMATTYIRGGTVVSPTGCQDLDVLIDGERIAALVDPELAPFDDPDRTFDHVLEAKGKYVIPGGVDAHTHMEMPFGGTVASDTFETGTRAAAFGGTTTIIDFAIQRQGERVQDTLAAWHAKARGNCAVDYGFHQILGGVDTDALKAMDELVAEGVTSFKLFMAYPGVYYSDDGQILRAMQQCAGNGALTMMHAENGIAIDQLVAQHIERGETSPYYHGVSRPWELEEEATHRAIMLAKITGAPLYVVHVSAKQAMEQIAGARGSGANVFAETCPQYLYLSLEEQLAAPGFEGAKWVCSTPLRSHEEGHQEELWRYIRTGDVATVSTDHCPFCFKGQKEMGLGDFSKIPNGMSGVEHRIDLMYQGVVNGKLSLQRWVDVCATTPARMFGLYPRKGIVSPGADADVVIYDPDGRTSIGFEKNHHSNVDHSTWEGFEVEGCVQTVLSRGTIVVDRGRYLGRKGHGVFLKRGLSQYLI”, the protein production result is “failed”.

On to “MNMKLQVTVLKGDVIENGYEVVDAVEGNGNNDDSGDDGGEDEEGSADDAEGKETKKGPVSDPDLNGEAGDNDDEPEGDDGNDDEDDDNHENDDEDEEEDEDENDDGGEEDDDEDAEVEEEEEEEDEDDEEALQPPKKRKK”, for which the protein production result was “failed”.

Consider “MNMQKCDSTQEQQLTFEPRGHQLTNINVWTPDSQWLAYDVRPNSSTFSGLTIERVNCITGDIEVIYRSQHGAHVGVVTVSPDMPARYVFIHGPEHPDNHWHYDFHHRRGVIVTEPDRELAVTLDAMDITPPFTPGALRGGSHVHVFSPDGSRLSFTYNDHVLHEQDPALDCRNVAVALPLHGVNPPKQHPREYDGSHFCVLVTRTTPTPLAGSDQISRAYEEGWIGSQGYLKMDGTRQRWALAFIGDTLSAQGEKIPEIFIADLPEHERDYARAGEEPLEGTQTTMPAPPAGVRQRRLTFTAERHFPGLATSPRHWLRTSPDGSAIACLMKDDEGVVQLWLVSPNGGEPRQLTFTEGGIQSAFSWHPQGHSLVFVCDNSVMQCDSTTGQLWRLTARSAIAPMADAVVFSPDGTKVAFMREIDGLAQIFTVKVD”, for which the protein production entry is “failed”.

For “MNNGRRIGLIMIITGATLWGLSGPMIQWLFQHTNVSSIDFLTIRLLLAGIFILSFLLIKKQNIFQIWKHPRHSIQLIIFSILGMLGAQYAFIETVHISNAVTATLFQFLGPVFITIYVAFEQRKFPASMQLLAIITALTGTYFIITNGSIENIVLSKEAIIFGLLTAIGFAFYTLHPASLIKECGTTLVIGWGMLIGGIALLICNRSFGWHELSQTFTTKTFSMLILIIISGTLSFLLYIGSLKYLAATETSILSSIEPLVAAIVSIAWLNESFGAYQLLGGVCIVLSVIFLTMPQKENEPAFTSEQI”, the protein production entry is “failed”.

Regarding “MNNIKRFFRYISKNAKYIDYPLVVTYLLLCLIGLVMVYSASMVAATKGSLTGGISVPGTYFYTRQLMYVIMSLVIVFFMAFFMNVKLLETIRFQKWMMIGIIILLAATLVVGSNINGSKSWINLGFMNLQASELLKIAIILYIPYMIEKKRPKVFKQPKLMTSPIILAGLCIALVLLQRDVGQTLLIMIIFVSILFYAGIGVQKSIKYGLLIIVGVVIIGSLFLIIGLVPDYLTARFSTLTNPFSQESGTGYHISNSLIAIGNGGLLGRGLGNSIMKLGYLPEPHTDFIFSIICEELGLVGGLVVICLLFFIVYRAFELANKTNSYFYKLVCVGVASYIGSQTFVNLGGISGTIPLTGVPLPFISFGGSSMISLSIALGLLLITGKQIRIEAYRKKQANKKKTHIGMTRRY”, the protein production entry is “failed”.

As to “MNNKIYFTPGPSELYPTVRQHMITALDEKIGVISHRSKKFEEVYKTASDNLKTLLELPSNYEVLFLASATEIWERIIQNCVEKKSFHCVNGSFSKRFYEFAGELGREAYKEEAAFGKGFYPADITVPADAEIICLTHNETSSGVSMPVEDINTFRDKNKDALIFVDAVSSLPYPKFDWTKIDSVFFSVQKCFGLPAGLGVWILNDRVIEKSKALLAKRKSIGTYHTIPSMLEKARVNQTPETPNAMNIFLLGKVTGDMLQISADGIRKQTEEKAALINTYIESSKVFSFGVEDAKLRSMTTIVANTTMLPGEINKILEPFDMAVGAGYGSKKETQIRIANFPAHSLEQVHKLVQTLKEKIG”, the protein production entry is recorded as “not failed”.

Consider “MNNKLKTQAVEQLFQAILSLKDLDEAYDFFEDVCTINEILSLSQRFEVAKMLREHRTYLDIAEKTGASTATISRVNRSLNYGNDGYDRVFERLGMLEKESEDNK”, for which the protein production entry is “not failed”.

Take “MNNKTKGIILITISALSFALMSTFVKLSGDLPSIEKSFFRNLVSCFVAFYLVKKDNALLFGHKENRLALIGRSALGTLGIWANYYAIDRLILSDATILNKLSPFFVIIFSYLFLKEKLKPIHIICLLAAFSGVLFIVRPSGNLASNFIPAIIGLCSAAFAGGAYTFVRYLGGKEKGATIVFFFSFFSIVTTFPIMLFQFETFSLEQFVFLILAGVAASCAQFALTAAYKYAPARDISIYDYTQVIFTALIGFVLFGDIPDKISLIGYVLILLASFSIFLYNKKEASK”: the protein production entry was “not failed”.

Take “MNNNLQRDAIAAAIDVLNEERVIAYPTEAVFGVGCDPDSETAVMRLLELKQRPVDKGLILIAANYEQLKPYIDDTMLTDVQRETIFSRWPGPVTFVFPAPATTPRWLTGRFDSLAVRVTDHPLVVALCQAYGKPLVSTSANLSGLPPCRTVDEVRAQFGAAFPVVPGETGGRLNPSEIRDALTGELFRQG”: the protein production result is “not failed”.
